Experimental data reported in patent US20220306758A1 (Regeneron, published 2022).

What was measured:
[1] = molecular target: T1, human BCMA on cells (endogenous, on multiple myeloma and lymphoma cell lines) (human, UniProt Q02223 1-184); test: cell-based or functional assay
T1 sequence: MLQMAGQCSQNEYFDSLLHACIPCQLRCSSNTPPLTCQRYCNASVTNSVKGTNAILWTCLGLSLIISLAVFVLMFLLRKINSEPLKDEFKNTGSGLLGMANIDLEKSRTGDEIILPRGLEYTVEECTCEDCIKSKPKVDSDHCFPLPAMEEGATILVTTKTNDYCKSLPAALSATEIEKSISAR

[2] = molecular target: T1, human BCMA on cells (endogenous, on …); test: cell-based or functional assay; remark: listed apart in the source
[3] = molecular target: T1, human BCMA on cells (endogenous, on …); test: cell-based or functional assay; remark: listed apart in the source
[4] = molecular target: T2, monkey BCMA-MFC (monkey BCMA with C-terminal mFc tag) (monkey); test: SPR, Biacore, mAb captured by anti-hFc, 25 C
T2 construct: also called mfBCMA.mFc
Protocol: (§1) The CM5 Biacore sensor surface was derivatized by amine coupling with a monoclonal mouse anti-human Fc antibody (GE, #BR-1008-39) to capture purified anti-BCMA mAbs and anti-BCMA×anti-CD3 bispecific mAbs. All Biacore binding studies were performed in a buffer composed of 0.01M HEPES pH 7.4, 0.15M NaCl, 3 mM EDTA, 0.05% v/v Surfactant P20 (HBS-ET running buffer). […] Antigen samples were then injected over the anti-BCMA and anti-BCMA×anti-CD3 bispecific mAbs captured surfaces at a flow rate of 30 μL/minute. Antibody-reagent association was monitored for 5 minutes while dissociation in HBS-ET running buffer was monitored for 10 minutes. All of the binding kinetics experiments were performed at 25° C. Kinetic association (kₐ) and dissociation (kd) rate constants were determined by fitting the real-time sensorgrams to a 1:1 binding model using Scrubber 2.0c curve fitting software. Binding dissociation equilibrium constants (KD) and dissociative half-lives (t½) were calculated from the kinetic rate constants as: […]

[5] = molecular target: T3, mouse BCMA-MFC (BCMA with C-terminal mFc tag) (mouse); test: SPR, Biacore, mAb captured by anti-hFc, 25 C
T3 construct: Tested at 30 nM only
T3 chain: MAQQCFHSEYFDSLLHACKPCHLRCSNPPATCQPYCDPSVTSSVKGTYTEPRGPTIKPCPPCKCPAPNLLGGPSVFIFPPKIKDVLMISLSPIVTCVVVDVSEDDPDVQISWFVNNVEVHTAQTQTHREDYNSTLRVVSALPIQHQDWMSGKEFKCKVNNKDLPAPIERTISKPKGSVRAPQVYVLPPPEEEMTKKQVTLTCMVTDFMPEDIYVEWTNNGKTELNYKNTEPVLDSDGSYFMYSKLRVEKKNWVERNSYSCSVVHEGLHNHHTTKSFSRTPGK
Protocol: as §1

[6] = molecular target: T4, human BCMA-MMH (extracellular domain of human BCMA with C-terminal myc-myc-hexahistidine tag) (human); test: SPR, Biacore, mAb captured by anti-hFc, 25 C
T4 construct: Monomeric antigen; the entry holds the ectodomain and the myc-myc-His tag; also called hBCMA.mmh; hBCMA.mmH
T4 chain: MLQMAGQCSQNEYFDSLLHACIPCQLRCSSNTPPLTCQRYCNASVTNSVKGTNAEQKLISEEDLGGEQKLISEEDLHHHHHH
Protocol: as §1

[7] = molecular target: T5, human BCMA-MFC (extracellular domain of human BCMA with C-terminal mFc tag) (human); test: SPR, Biacore, mAb captured by anti-hFc, 25 C
T5 construct: also called hBCMA.mFc
T5 chain: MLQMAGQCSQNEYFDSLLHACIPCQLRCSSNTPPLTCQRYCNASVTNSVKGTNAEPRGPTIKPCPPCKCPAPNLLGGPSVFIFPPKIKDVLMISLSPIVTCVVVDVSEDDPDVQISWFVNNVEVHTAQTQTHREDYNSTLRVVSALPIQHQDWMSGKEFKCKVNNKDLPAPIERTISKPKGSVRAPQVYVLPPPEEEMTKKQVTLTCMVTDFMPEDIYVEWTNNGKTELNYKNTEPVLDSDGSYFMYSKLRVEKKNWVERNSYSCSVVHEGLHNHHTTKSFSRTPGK
Protocol: as §1

[8] = molecular target: T1, human BCMA on cells (endogenous, on …); test: cell-based or functional assay; remark: listed apart in the source
[9] = molecular target: T6, monkey BCMA-MMH (monkey BCMA with C-terminal myc-myc-hexahistidine tag) (monkey); test: SPR, Biacore, mAb captured by anti-hFc, 25 C
T6 construct: The words 'extracellular domain' stand before human BCMA in the sentence and are read as applying to the monkey construct too; also called mfBCMA.mmh
Protocol: as §1

B1: mAb16747 (REGN4515) (antibody, V domains shown)
VH: QVQLVESGGGLVKPGGSLRLSCAASGFTFSDYYISWIRQAPGKGLEWVSYISSSGSSIKYADSVKGRFTISRDNAKNSLYLQMNSLRAEDTAVYYCAREGGNYGMDVWGQGTTVTVSS
VL: DIQMTQSPSSVSASVGDRVTITCRASQGINNWLVWYQQKPGKAPKLLIYAATSLQSGVPSRFSGSGSGTDFTLTISSLQPEDFATYYCQQANSFPPTFGQGTKLEIK
notes: Anti-BCMA monoclonal antibody; human Fc (captured by anti-human Fc)
MFI fold change over cells incubated in media only, NCI-H929, 18 h with 67 nM antibody, then stained with the same antibody [1]: 1.8 fold | MFI fold change over cells incubated in media only, NCI-H929, 18 h with 667 nM antibody, then stained with the same antibody [1]: 2.1 fold | MFI fold change over cells incubated in media only, Molp8, 18 h with 67 nM antibody, then stained with the same antibody [2]: 2.2 fold | MFI fold change over cells incubated in media only, Molp8, 18 h with 667 nM antibody, then stained with the same antibody [2]: 0.6 fold | MFI fold change over cells incubated in media only, U266, 18 h with 67 nM antibody, then stained with the same antibody [3]: 1.5 fold | MFI fold change over cells incubated in media only, U266, 18 h with 667 nM antibody, then stained with the same antibody [3]: 1.7 fold | 30 nM mfBCMA.mFc Bind (RU) [4]: 101 RU | Kd [4]: 3.37 nM | koff [4]: 0.00716 s⁻¹ | kon [4]: 2.13e+06 M⁻¹ s⁻¹ | t½ [4]: 1.6 min | 30 nM mfBCMA.mFc Bind (RU) (mouse BCMA-MFC by the table's title) [5]: 108 RU | Kd [5]: 4.42 nM | koff [5]: 0.00418 s⁻¹ | kon [5]: 947000 M⁻¹ s⁻¹ | t½ [5]: 2.8 min | 90 nM hBCMA.mmh Bind (RU) [6]: 31.4 RU | Kd [6]: 2.84 nM | koff [6]: 0.00247 s⁻¹ | kon [6]: 869000 M⁻¹ s⁻¹ | t½ [6]: 4.7 min | 30 nM hBCMA.mFc Bind (RU) [7]: 146 RU | Kd [7]: 0.0633 nM | koff [7]: 8.95e-05 s⁻¹ | kon [7]: 1.41e+06 M⁻¹ s⁻¹ | t½ [7]: 129 min

B2: mAb16732 (REGN4514) (antibody, V domains shown)
VH: EVQLVESGGGLVQPGRSLRLSCAASGFTFDDYAMHWVRQAPGKGLEWVSGISWNSGNMGYADSVKGRFTISRDNAKNSLFLQMHSLRAEDTAFYYCAKVRLTAFDFWGQGTLVTVSS
VL: DIQMTQSPSSLSASVGDRVTITCRTSQSIGNYLNWFQQKPGKAPKLLIYTASSLQNGVPSRFTGSGSGTDFTLTISSLQPEDFVIYYCQQSFSTPYTFGQGTKLEIK
notes: as for B1
30 nM mfBCMA.mFc Bind (RU) [4]: 40.3 RU | Kd [4]: 14.7 nM | koff [4]: 0.00724 s⁻¹ | kon [4]: 492000 M⁻¹ s⁻¹ | t½ [4]: 1.6 min | 30 nM mfBCMA.mFc Bind (RU) (mouse BCMA-MFC by the table's title) [5]: 110 RU | Kd [5]: 0.677 nM | koff [5]: 0.000269 s⁻¹ | kon [5]: 397000 M⁻¹ s⁻¹ | t½ [5]: 43 min | 90 nM hBCMA.mmh Bind (RU) [6]: 25.3 RU | Kd [6]: 2.69 nM | koff [6]: 0.00285 s⁻¹ | kon [6]: 1.06e+06 M⁻¹ s⁻¹ | t½ [6]: 4.1 min | 30 nM hBCMA.mFc Bind (RU) [7]: 124 RU | Kd [7]: 0.0422 nM | koff [7]: 4.53e-05 s⁻¹ | kon [7]: 1.07e+06 M⁻¹ s⁻¹ | t½ [7]: 255 min

B3: mAb21581, bivalent anti-BCMA antibody (parent of REGN5458) (antibody, V domains shown)
VH: EVQLVESGGGLVQPGGSLRLSCAASGFTFSNFWMTWVRQAPGKGLEWVANMNQDGSEKYYVDSVKGRFTISRDNAKSSLYLQMNSLRAEDTAVYYCARDREYCISTSCYDDFDYWGQGTLVTVSS
VL: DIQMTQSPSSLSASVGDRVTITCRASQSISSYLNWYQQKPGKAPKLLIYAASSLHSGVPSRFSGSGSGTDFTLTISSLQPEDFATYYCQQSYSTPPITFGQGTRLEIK
MFI fold change over cells incubated in media only, NCI-H929, 18 h with 67 nM antibody, then stained with the same antibody [1]: 1.2 fold | MFI fold change over cells incubated in media only, NCI-H929, 18 h with 667 nM antibody, then stained with the same antibody [1]: 1.4 fold | MFI fold change over cells incubated in media only, Molp8, 18 h with 67 nM antibody, then stained with the same antibody [2]: 2.3 fold | MFI fold change over cells incubated in media only, Molp8, 18 h with 667 nM antibody, then stained with the same antibody [2]: 3.7 fold | MFI fold change over cells incubated in media only, U266, 18 h with 67 nM antibody, then stained with the same antibody [3]: 1.8 fold | MFI fold change over cells incubated in media only, U266, 18 h with 667 nM antibody, then stained with the same antibody [3]: 2.3 fold | MFI fold change over cells incubated in media only, MM1S, 18 h with 67 nM antibody, then stained with the same antibody [8]: 7.3 fold | MFI fold change over cells incubated in media only, MM1S, 18 h with 667 nM antibody, then stained with the same antibody [8]: 7 fold

B4: mAb16711 (antibody, V domains shown)
VH: QVQLVESGGGVVQPGRSLRLSCAASGFTFSTYGIHWVRQAPGKGLEWVAVILHDGSSNYYAESVKGRFIISRDNSKNTLYLQMNSLRAEDTALYYCTKRYSEAAGPNWFDPWGQGTLVTVSS
VL: DIQMTQSPSSVSASVGDRVTITCRASRGISSWLAWYQQKPGKAPKLLIHAASSLQSGVPSRFSGSGSGTDFTLTISSLQPEDFATYYCQQAISFPFTFGPGTKVDIK
notes: as for B1
MFI fold change over cells incubated in media only, NCI-H929, 18 h with 67 nM antibody, then stained with the same antibody [1]: 2.8 fold | MFI fold change over cells incubated in media only, NCI-H929, 18 h with 667 nM antibody, then stained with the same antibody [1]: 2.1 fold | MFI fold change over cells incubated in media only, Molp8, 18 h with 67 nM antibody, then stained with the same antibody [2]: 3.5 fold | MFI fold change over cells incubated in media only, Molp8, 18 h with 667 nM antibody, then stained with the same antibody [2]: 3 fold | MFI fold change over cells incubated in media only, U266, 18 h with 67 nM antibody, then stained with the same antibody [3]: 2.2 fold | MFI fold change over cells incubated in media only, U266, 18 h with 667 nM antibody, then stained with the same antibody [3]: 2.2 fold | 30 nM mfBCMA.mFc Bind (RU) [4]: 0.9 RU | binding result [4]: no binding (tested: 30 nM) | 30 nM mfBCMA.mFc Bind (RU) (mouse BCMA-MFC by the table's title) [5]: 90 RU | Kd [5]: 1.02 nM | koff [5]: 0.0011 s⁻¹ | kon [5]: 1.07e+06 M⁻¹ s⁻¹ | t½ [5]: 10.5 min | 90 nM hBCMA.mmh Bind (RU) [6]: 22.2 RU | Kd [6]: 1.73 nM | koff [6]: 0.00347 s⁻¹ | kon [6]: 2.01e+06 M⁻¹ s⁻¹ | t½ [6]: 3.3 min | 30 nM hBCMA.mFc Bind (RU) [7]: 114 RU | Kd [7]: 0.103 nM | koff [7]: 0.00019 s⁻¹ | kon [7]: 1.85e+06 M⁻¹ s⁻¹ | t½ [7]: 60.8 min | 90 nM mfBCMA.mmh Bind (RU) [9]: -0.5 RU

B5: mAb16716 (antibody, V domains shown)
VH: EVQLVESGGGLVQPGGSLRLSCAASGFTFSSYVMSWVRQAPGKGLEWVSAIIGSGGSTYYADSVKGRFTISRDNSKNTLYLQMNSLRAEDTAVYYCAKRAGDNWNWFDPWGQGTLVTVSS
VL: DIQMTQSPSSVSASLGDRVTITCRASQGISSWLAWYQRKPGKAPKLLIYAASSLQSGVPSRFSGSGSGADFTLTISSLQPEDFATYYCQQAKSVPFTFGPGTKVDIK
notes: as for B1
30 nM mfBCMA.mFc Bind (RU) (mouse BCMA-MFC by the table's title) [5]: 33.4 RU | Kd [5]: 18.8 nM | koff [5]: 0.00385 s⁻¹ | kon [5]: 205000 M⁻¹ s⁻¹ | t½ [5]: 3 min | 90 nM hBCMA.mmh Bind (RU) [6]: 26.4 RU | Kd [6]: 3.56 nM | koff [6]: 0.00299 s⁻¹ | kon [6]: 841000 M⁻¹ s⁻¹ | t½ [6]: 3.9 min | 30 nM hBCMA.mFc Bind (RU) [7]: 120 RU | Kd [7]: 0.0968 nM | koff [7]: 8.35e-05 s⁻¹ | kon [7]: 862000 M⁻¹ s⁻¹ | t½ [7]: 138 min | 90 nM mfBCMA.mmh Bind (RU) [9]: 0.8 RU | binding result [9]: no binding (tested: 90 nM)
